The source of these data is US20250127885A1.

For assay [1], the target named is HCMV viral Fcγ receptors (vFcγRs) on AD169-infected cells. In words: cell-based or functional assay.
The target is the same in assay [2]. The assay is described as follows: flow cytometry on AD169-infected fibroblasts, 67 nM antibody.
The target in assay [3] is HCMV glycoprotein B (gB) on HCMV-infected MRC5 fibroblasts (human cytomegalovirus (HCMV), strain AD169) (UniProt P06473). Described as above.
In assay [4] the target is human CD16A ectodomain fused to mouse CD3 zeta, on BW5147 reporter cells (human; mouse) (UniProt P08637). In words: cell-based or functional assay.
human CD16A ectodomain fused to mouse CD3 zeta, on BW5147 reporter cells (human; mouse), sequence (P08637 other isoform, or with tags, fused parts or gaps limits assumed): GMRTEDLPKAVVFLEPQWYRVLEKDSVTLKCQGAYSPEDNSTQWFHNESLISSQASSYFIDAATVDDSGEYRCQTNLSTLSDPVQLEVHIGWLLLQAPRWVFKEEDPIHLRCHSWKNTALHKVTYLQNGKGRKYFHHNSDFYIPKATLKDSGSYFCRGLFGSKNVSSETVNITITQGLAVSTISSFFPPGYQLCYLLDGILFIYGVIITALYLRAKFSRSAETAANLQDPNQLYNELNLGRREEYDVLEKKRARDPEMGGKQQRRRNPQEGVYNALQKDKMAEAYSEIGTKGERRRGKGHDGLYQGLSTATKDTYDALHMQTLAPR
Assay [5] deals with HCMV glycoprotein B (gB) on HCMV-infected MRC5 fibroblasts (human cytomegalovirus (HCMV), strain AD169) (UniProt P06473). In words: flow cytometry on AD169-infected MRC5 cells, anti-human Fcγ-AF647. A general note: Flow cytometry measures light scatter and fluorescence of single cells or particles in a stream.
For assay [6] the target is unchanged. The assay is described as follows: flow cytometry on AD169-infected fibroblasts, 67 nM antibody; gB and vFcγRs both capture.
For assay [7] the target is unchanged. The assay is described as follows: flow cytometry, 67 nM antibody on ΔΔΔ-infected fibroblasts (vFcγRs deleted), anti-huFc detection.
The target is the same in assay [8]. In words: flow cytometry, 67 nM antibody on AD169-infected fibroblasts, anti-huFc detection (vFcγRs also present).
Assay [9] shares this target. In words: flow cytometry on AD169-infected fibroblasts, 67 nM antibody with soluble gp34-M (100 nM) and/or t-gp68 (2000 nM).
Assay [10] addresses soluble HCMV gp34 ectodomain with C150S (gp34-M) (human cytomegalovirus (HCMV), strain AD169) (UniProt P16809). In words: ELISA, gB coated at 2 ug/mL, antibody 100 ug/mL, Gp34 diluted from 50 ug/mL, anti-flag-M2-HRP 1/1000 (table on the sheet). (In general: In an ELISA, binding on a coated surface is turned into a signal by an enzyme label.)
Assay [11] concerns the target soluble truncated HCMV gp68 ectodomain (t-gp68) (human cytomegalovirus (HCMV)) (UniProt F5HC14). In words: ELISA, gB coated at 2 ug/mL, antibody 100 ug/mL, Gp68 diluted from 50 ug/mL, anti-flag-M2-HRP 1/1000 (table on the sheet).
Assay [12] concerns the target human CD16A F158 allotype (human) (UniProt P08637). In words: BLI (Octet RED96e), steady state; hu4D5 variant on FAB2G tips, CD16A F158 5000-156.25 nM, pH 7.4. Background: BLI is a label-free optical method that tracks binding on a fibre tip over time.
Assay [13] deals with biotinylated FcRn (Acro Biosystems) (UniProt P55899). In words: BLI (Octet RED96e), steady state; biotinylated FcRn on SA tips, hu4D5 Fc variant 1000-31.25 nM, pH 6.0.
biotinylated FcRn (Acro Biosystems), sequence (P55899 24-297 limits assumed, chain 1 of 2): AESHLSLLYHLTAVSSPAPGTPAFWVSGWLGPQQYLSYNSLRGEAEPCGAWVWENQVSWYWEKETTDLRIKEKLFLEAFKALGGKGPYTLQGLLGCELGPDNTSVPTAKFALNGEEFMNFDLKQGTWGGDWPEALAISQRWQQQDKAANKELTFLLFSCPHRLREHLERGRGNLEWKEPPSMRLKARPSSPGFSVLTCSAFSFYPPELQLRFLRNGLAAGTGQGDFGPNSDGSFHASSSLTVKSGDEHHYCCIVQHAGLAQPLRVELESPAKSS
biotinylated FcRn (Acro Biosystems), sequence (chain, as listed by the source limits assumed, chain 2 of 2): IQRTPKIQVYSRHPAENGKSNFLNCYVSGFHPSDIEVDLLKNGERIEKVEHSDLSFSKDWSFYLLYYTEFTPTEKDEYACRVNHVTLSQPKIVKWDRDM
The target in assay [14] is soluble HCMV gp34 ectodomain with C150S (gp34-M) (human cytomegalovirus (HCMV), strain AD169) (UniProt P16809). The assay is described as follows: SPR (Biacore X100), kinetic KD; gp34-M captured by anti-strep Fab on CM5, hu4D5 Fc variant injected; 1:1 fit.
The target in assay [15] is soluble truncated HCMV gp68 ectodomain (t-gp68) (human cytomegalovirus (HCMV)) (UniProt F5HC14). The assay is described as follows: SPR (Biacore X100), equilibrium (steady state) KD; t-gp68 captured by anti-strep Fab, hu4D5 Fc variant injected.
Assay [16] has as its target HCMV Merlin gpRL13 ectodomain displayed on ExpiCHO cells (human cytomegalovirus (HCMV), strain Merlin) (UniProt Q6SWC9). The assay is described as follows: flow cytometry, ExpiCHO cells displaying the ectodomain, hu4D5 Fc variant titrated, goat anti-Fc gamma-AF647.
For assay [17], the target named is soluble truncated HCMV gp68 ectodomain (t-gp68) (human cytomegalovirus (HCMV)) (UniProt F5HC14). The assay is described as follows: SPR (Biacore X100), kinetic KD; t-gp68 captured by anti-strep Fab on CM5, hu4D5 Fc variant injected; 2:1 fit, first kinetic constants.
Assay [18] addresses HCMV AD169 gpRL12 ectodomain displayed on ExpiCHO cells (human cytomegalovirus (HCMV), strain AD169) (UniProt P16810). In words: flow cytometry, ExpiCHO cells displaying the ectodomain, goat anti-Fc gamma-AF647, 4PL fit; EC50 unit inferred, x axis IgG (nM).
Assay [19] addresses HCMV gp34 ectodomain displayed on ExpiCHO cells (human cytomegalovirus (HCMV)) (UniProt P16809). The description is as above.
Assay [20] concerns the target HCMV Merlin gpRL12 ectodomain displayed on ExpiCHO cells (human cytomegalovirus (HCMV), strain Merlin) (UniProt Q6SWD0). The description is as above.
The target of assay [21] is HCMV Merlin gpRL13 ectodomain displayed on ExpiCHO cells (human cytomegalovirus (HCMV), strain Merlin) (UniProt Q6SWC9). The assay is described as above.
The target of assay [22] is HCMV gp68 ectodomain displayed on ExpiCHO cells (human cytomegalovirus (HCMV)) (UniProt P16739). The description is as above.
Assay [23] addresses HCMV viral Fcγ receptors (vFcγRs) on AD169-infected cells. In words: flow cytometry, 67 nM antibody on AD169-infected fibroblasts, anti-huFc detection.

A word on the EC50 (read off the curve): it is the concentration needed to bring the measured effect to its halfway point. A lower EC50 (read off the curve) goes with a more potent agent. The term pKd denotes −log10 of the Kd, conventionally taken in molar units. Low values mean a large Kd, high ones a small Kd. For orientation: pEC50 means −log10 of the EC50, conventionally taken in molar units.

pEC50, pKd: −log10 of the molar value.

human CD16A F158 allotype (human), sequence (P08637 17-208 limits assumed): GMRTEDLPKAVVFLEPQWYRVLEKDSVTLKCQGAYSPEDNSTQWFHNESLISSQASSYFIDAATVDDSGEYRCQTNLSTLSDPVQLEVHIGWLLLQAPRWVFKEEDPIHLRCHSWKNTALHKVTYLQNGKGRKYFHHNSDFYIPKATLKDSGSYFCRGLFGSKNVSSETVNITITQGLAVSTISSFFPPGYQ

With “2B1 control antibody with human IgG1 Fc and an irrelevant Fab”, in assay [1], the internalization by AD169-infected MRC5 (pHrodo, %) worked out at 20% and the internalization in the presence of soluble gp34-M, t-gp68, or both (%) was in the range of 0 to 5%. Also, the percent of cells bound in assay [2] came out at 40%.

Take “2B1 control antibody with mouse IgG2a Fc and an irrelevant Fab”: the percent of cells bound in assay [2] was 5%.

Regarding “SM5-1 (anti-gB) with mouse IgG2a Fc (antibody)”, the percent of cells bound in assay [3] was 60%.

For the substance “SM5-1 (anti-gB) with wild-type human IgG1 Fc (antibody)”, in [1], the NK-92 V158 degranulation (CD107a, % cells), AD169/GFP-infected MRC5, 20 µg/ml came out at 5%; the internalization by AD169-infected MRC5 (pHrodo, %) stood at 37%; the internalization by AD169-infected MRC5 cells (%) is 35%; the internalization by AD169-infected cells (pHrodo, %) was determined as 50%. Moreover, in assay [1], the internalization by ΔΔΔ-infected cells (vFcγRs deleted; pHrodo, %) was 7% and the internalization in the presence of soluble gp34-M, t-gp68, or both (%) was in the range of 0 to 5%. In assay [4], the CD16A activation, EC50 (mIL-2 of BW-CD16A-ζ reporter cells), AD169-infected MRC5 came to 0.0128 ng/mL and the CD16A activation, EC50 (mIL-2 of BW-CD16A-ζ reporter cells), ΔΔΔ-infected MRC5 was found to be 0.00063 ng/mL. The percent of cells stained in assay [5] turned out to be 70%. For the same substance, the percent of cells bound in assay [6] is 75%. Moreover, the percent of cells stained in assay [7] amounted to 80%. The percent of cells stained in [8] was 80%. This substance also registered a percent of cells bound in assay [9] of 60%. The substance also displayed a half-maximal effective concentration (EC50 (read off the curve)) in assay [10] of 200 ng/mL. In assay [11], this substance returned an EC50 (read off the curve) of 400 ng/mL.

“hu4D5 antibody with G2 Fc (R255Q, H268L, E294K, Q311L, K334E)”: the pKd in assay [12] was 6.00; in assay [13], 7.30; in assay [14], 6.49; in assay [15] it was 5.74; in assay [17], 5.32. In assay [16], this substance had an EC50 (read off the curve) of 30 nM. Besides, the figures for the pEC50 in [18] and in assay [19] were 7.09 and 6.39, respectively.

Take “hu4D5 antibody with G5 Fc (R255Q, S337F)”: the pKd was 6.00 in [12]; 7.05 in [13]; 7.48 in [14]; 6.07 in assay [15]; 5.68 in [17]. Besides, the pEC50 was 7.40 in assay [18], 7.82 in assay [20], 6.64 in assay [21] and 6.39 in [19].

Regarding “hu4D5 antibody with wild-type human IgG1 Fc”, the pKd was 6.00 in [12]; 7.22 in assay [13]; 8.14 in assay [14]; 7.10 in assay [15]; 7.16 in assay [17]. The negative logarithm of the EC50 (pEC50) in assay [18] was 7.13; in assay [20], 7.70; in assay [21], 7.26; in assay [19], 7.40; in [22], 7.92.

Consider human IgG1 isotype control antibody, for which the internalization by AD169-infected cells (pHrodo, %) in assay [1] was found to be 10%. Moreover, the percent of cells stained in assay [23] was found to be 35%.
